# B1: CPEB3 Ribozyme (parent)
# chain: GGGGGCCACAGCAGAAGCGUUCACGUCGCGGCCCCUGUCAGAUUCUGGUGAAUCUGCGAAUUCUGCUGU
# Variants of: B1
# Experiment: self-cleavage, relative activity (ratio to wild type); higher = more cleavage; co-transcriptional
row,Variant,self-cleavage
1,C24G U43A,0.348
2,C24G U43C,0.309
3,G25A A51G,0.22
4,G25A A51U,0.166
5,G25A,0.202
6,C24U C35U,0.579
7,C24U G48C,0.86
8,C24U G48A,0.815
9,C24U G48U,0.889
10,G25A C29U,0.163
11,G25A C29A,0.181
12,G25A C29G,0.216
13,G25A C39A,0.237
14,G25A C39G,0.16
15,G25A C39U,0.229
16,C24U C33G,0.294
17,C24U C33A,0.465
18,C24U C33U,0.856
19,G25A G47A,0.175
20,C24G U55G,0.191
21,C24G U55A,0.36
22,C24U U67G,0.761
23,C24U U67C,0.833
24,C24U U49G,0.762

row,Variant,self-cleavage
1,G25A G48U,0.236
2,G25A G48A,0.208
3,C24U G65A,0.39
4,C24U G65U,0.352
5,C24U G31U,0.271
6,C24U G31A,0.316
7,C24U U46A,0.852
8,C24U U46C,0.714
9,C24U C57G,0.24
10,C24U C57U,0.244
11,G25A C34A,0.196
12,G25A C34U,0.185
13,G25A G41U,0.197
14,G25A G41C,0.172
15,C24U G37U,0.251
16,G25A A59C,0.157
17,G25A A59U,0.17
18,G25A A59G,0.208
19,G25A G30A,0.155
20,G25A G30C,0.219
21,G25A A52U,0.213
22,G25A A52C,0.253
23,G25A A52G,0.193
24,G25A C63U,0.166

row,Variant,self-cleavage
1,C24U C29G,0.246
2,C24U C29U,0.143
3,C24U C29A,0.292
4,G25A C27G,0.208
5,G25A C27U,0.169
6,G25A C27A,0.162
7,C24G U44A,0.514
8,C24G U44C,0.348
9,G25A C54G,0.208
10,G25A C54A,0.203
11,C24U G50C,0.795
12,C24U G50A,0.838
13,G25A A42G,0.203
14,G25A A42C,0.161
15,G25A A42U,0.178
16,C24U A60C,0.254
17,C24U,0.844
18,C24U U69A,0.895
19,C24U U69G,0.909
20,C24G U69C,0.739
21,C24U U44G,0.703
22,C24U U44A,0.687
23,C24U U44C,0.633
24,C24U G41U,0.461

row,Variant,self-cleavage
1,C24U G41A,0.394
2,G25A G28C,0.131
3,C24U U53C,0.53
4,C24G U36A,0.118
5,C24G U36C,0.171
6,C24G U36G,0.146
7,C24U C66U,0.734
8,C24U C66G,0.346
9,C24U C66A,0.331
10,G25A C57A,0.223
11,G25A C57U,0.205
12,C24G U64G,0.338
13,C24G U64C,0.315
14,C24U G68C,0.928
15,C24U G68U,0.96
16,C24U G47A,0.869
17,C24U G47U,0.909
18,G25A C35U,0.152
19,G25A C35G,0.18
20,C24G U62G,0.203
21,C24G U62A,0.27
22,C24U U64A,0.42
23,C24U U64C,0.531
24,C24U C45G,0.776

row,Variant,self-cleavage
1,C24U C45A,0.743
2,C24U U43C,0.691
3,C24U U43A,0.679
4,C24U U43G,0.418
5,C24U G56U,0.528
6,C24U G56A,0.61
7,C24U G56C,0.307
8,C24G U46A,0.452
9,C24G U46C,0.505
10,C24G U46G,0.471
11,G25A A60G,0.171
12,G25A A60U,0.188
13,G25A C32G,0.131
14,G25A C32U,0.255
15,C24U A59C,0.281
16,C24U A59G,0.866
17,C24G U67A,0.368
18,C24U C54U,0.808
19,C24U C54A,0.561
20,C24G U26C,0.386
21,C24G U61C,0.284
22,C24G U61A,0.173
23,C24G U61G,0.306
24,G25A C45A,0.208

row,Variant,self-cleavage
1,C24U C32G,0.211
2,C24U C32A,0.414
3,C24U C34A,0.263
4,C24U C34G,0.283
5,C24U C34U,0.858
6,C24G U38C,0.413
7,C24G U38G,0.215
8,G25A C66A,0.196
9,G25A C66U,0.244
10,C24U A52C,0.791
11,C24U U36G,0.182
12,G25A A40U,0.153
13,G25A A40C,0.178
14,C24U U38A,0.418
15,C24U U38C,0.582
16,C24U G25A,0.212
17,C24U G25C,0.105
18,C24U U62C,0.505
19,C24U U62A,0.441
20,G25A G31U,0.197
21,G25A G31C,0.147
22,G25A G31A,0.219
23,C24U U61C,0.353
24,C24U U61A,0.431

row,Variant,self-cleavage
1,C24U U61G,0.397
2,G25A C33A,0.206
3,G25A C33U,0.276
4,G25A C33G,0.206
5,C24U C63G,0.328
6,C24G U53A,0.339
7,C24G U53C,0.235
8,C24G U53G,0.177
9,C24G U49C,0.523
10,C24U A51C,0.782
11,G25A G37A,0.187
12,G25A G37U,0.199
13,G25A G37C,0.119
14,C24U A40U,0.317
15,C24U A40G,0.738
16,C24U C27U,0.193
17,C24U C27G,0.189
18,C24U G58C,0.742
19,C24U G58U,0.879
20,C24U A42U,0.654
21,C24U A42G,0.631
22,C24U G30U,0.199
23,C24U G30A,0.389

# From the RNAGym collection of RNA variant scans (doi:10.7554/elife.80360)
